Measurements: patent CN113372448A

Biological target: CIB-OVA (cimbuterol coupled to ovalbumin, detection/coating antigen) (UniProt P01012)
Experiment: indirect ELISA of soluble scFv (periplasmic extract), steps as in Example 2 (CIB-OVA coated); negative control pCANTAB-5E/HB2151

Chain of UniProt P01012 (P01012 2-386 limits assumed, form in doubt): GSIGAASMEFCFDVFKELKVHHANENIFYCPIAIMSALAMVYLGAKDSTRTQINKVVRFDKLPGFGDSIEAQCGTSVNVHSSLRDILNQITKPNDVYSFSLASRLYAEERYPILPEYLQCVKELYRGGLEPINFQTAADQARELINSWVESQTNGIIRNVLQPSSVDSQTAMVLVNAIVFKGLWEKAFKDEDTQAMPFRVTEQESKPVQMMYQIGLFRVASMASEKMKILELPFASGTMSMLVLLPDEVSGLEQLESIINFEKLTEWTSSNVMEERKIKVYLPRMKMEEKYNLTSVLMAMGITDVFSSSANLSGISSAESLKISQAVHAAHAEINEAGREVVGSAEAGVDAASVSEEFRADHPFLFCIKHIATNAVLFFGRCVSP

B1: 5-CIB-ScFv (soluble anti-CIB single-chain antibody expressed from CIB-ScFv-pCANTAB5E in E. coli HB2151) (scFv, not shown: small tags and cut ends)
scFv: QVQLQESGADLVRPGTSVKVSCKASGYAFTNYLIEWVKQRPGQGLEWIGVINPGSGGTNYNEKFKGKATLTTDKSSSTAYMQLNSLTSEDSAVYFCKRPPMITTRRTGFDYWGQGTTVTVSSGGGGSGGGGSGGGGSDIELTQSPTTMAASPGEKITITCSATSSLSSNYLHWYQQKPGFSPKLLIYRTSNLASGVPTRFSGSGSGTSYSLTIGTMEAEDVATYYCHQYHRSPFTFGSGTKLEIKR
Q: How did the 效价 (titre, P/N>2.1) (dilution factor (1:x)) turn out when B1 was run?
A: 160
